Source: US9315544B2, “Method of treating eosinophilia by administering an immunomodulating peptide” (National Tsing Hua University, priority 2012, dated 2016)

What was measured:
Type in all cases: cell-based
human CCL11 = assay: CCL11 protein release from Beas-2B cells by ELISA; details: 37° C., 24 h
Procedure: FIG. 2 illustrates CCL11 expression in CMP and ECP co-treated Beas-2B cells. Beas-2B cells were starved with serum free medium for 24 h, followed by stimulation with ECP (column 2). Cells were stimulated with PBS as negative control (column 1) and ECP in the absence of CMP (column 2) or presence of 1 μM (column 3), 2.5 μM (column 4), 5 μM (column 5), 10 μM (column 6) CMP at 37° C. for 24 h. CCL11 protein level was determined by ELISA kit employing CCL11 antibody. The data represented mean±SD (standard deviation) of at least three independent experiments. ***, p<0.001; **, p<0.01
FIG. 3 illustrates CCL11 expression in CMP and IL-4 co-treated Beas-2B cells. Beas-2B cells were starved with serum free medium for 24 h, followed by stimulation with PBS (column 1) or 10 ng/mL IL-4 (column 2-7). Cells were stimulated with 10 ng/mL IL-4 in the absence […] or presence of 1 μM (column 3), 2.5 μM (column 4), 5 μM (column 5) and 10 μM (column 6) CMP at 37° C. for 24 h. CCL11 protein level was determined by ELISA kit employing CCL11 antibody. The data represented mean±SD (standard deviation) of at least three independent experiments. ***, p<0.001 (Stimulation with IL-4 compared with PBS treated Beas-2B cells). *, p<0.05 (Stimulation with indicated concentrations of CMP compared with IL-4 treated Beas-2B cells).
CCL11 ELISA kit (R&D) is an in vitro enzyme-linked immunosorbent assay for quantitative determination of human CCL11 concentration in cell culture supernatants. This assay employed an antibody specific for human CCL11 coated on a 96-well plate. The wells were incubated with 50 μL standard or sample for 2.5 hours at room temperature. After washing with 1× wash solution five times, 200 μL of CCL11 conjugate were added into each wells for 1 h. After washing, 100 μL TMB One-Step Substrate Reagent were added into each wells at room temperature for 30 minutes. 50 μL of Stop Solution were added into each wells and read at 450 nm by spectrophotometer immediately. Limit of detection in the assay was 5 pg/mL.
To investigate whether CMP influenced ECP-mediated CCL11 expression, Beas-2B cells were separately stimulated with 5 μM ECP in the absence of CMP and in the presence of 1 μM, 2.5 μM, 5 μM and 10 μM CMP at 37° C. for 24 h.
To further investigate whether CMP influenced CCL11 production from other stimulation in Beas-2B cells, serum-deprived Beas-2B cells were stimulated with 10 ng/mL IL-4, a dominant cytokine regulating CCL11, alone or in the presence of CMP at concentrations 1, 2.5, 5 and 10 μM at 37° C. for 24 h.

CCL11 = assay: Cytokine mRNA expression analysis by quantitative real-time PCR (CCL11); details: 5 μM ECP, Beas-2B cells, relative to mock-treated
Procedure: (§1) FIG. 1A-1B illustrates immunomodulatory effect of CMP on transcription of cytokine. Beas-2B cells were starved with serum free medium for 24 h, followed by stimulation with refold 5 μM ECP or 5 μM CMP or co-treatment with 5 μM ECP and 5 μM CMP at 37° C. for (A) 6 h and (B) 12 h, respectively. The mRNA quantities of CCL11, CCL24 and CCL26 were determined by real-time PCR. Beas-2B cells without protein treatment were used as control. […] The data represented at least three independent experiments and the error bar was shown as standard deviation (SD).
For inflammatory cytokine expression analysis, Beas-2B cells were stimulated with three different conditions: 1) 5 μM ECP, 2) 5 μM CMP and 3) co-incubated with 5 μM ECP and 5 μM CMP at 37° C. for 6 and 12 h. After incubation, total RNAs were extracted with RNA TRIzol reagent (Invitrogen, Inc) and reverse transcribed with MoMLV-reverse transcriptase (Promega, Madison, Wis.). SYBR Green-based quantitative real-time PCR will be used to quantify the gene of interest, relative expression ratios of genes of interest were normalized to glyceraldehyde-3-phosphate dehydrogenase (GAPDH) transcripts. Changes in cytokine expression were measured by quantitative real-time PCR (qRT-PCR) employing the StepOne™ amplification and detection system (Life Technologies Corporation). Data were analyzed by application of the StepOne™ quantification program software (version 2.22, Life Technologies Corporation) and expressed as means±S.D. Significance analysis was carried out by a two-sample unequal variance t-test with two-tailed distribution (post test). Significance was set as P<0.05.
ECP, the best known marker protein of asthma, is involved in triggering cytokine expression in bronchial epithelial cells. Real-time PCR analysis was carried out to quantify expression levels of indicated cytokines upon treatment with recombinant ECP in the presence and absence of CMP Bronchial epithelial Beas-2B cells were separately cultured in serum-free medium in the presence of 5 μM ECP, 5 μM CMP and both 5 μM ECP and 5 μM CMP for 6 and 12 h to monitor cytokine and chemokine gene modulation using real-time quantitative PCR. Untreated Beas-2B cells incubated at the same condition for 6 h and 12 h were used as negative controls. Here variation of gene expression levels of chemokines including CCL11, CCL24 and CCL26 was analyzed.

CCL26 = assay: Cytokine mRNA expression analysis by quantitative real-time PCR (CCL26); details: 5 μM ECP, Beas-2B cells, 6 h, relative to mock-treated
Procedure: as §1
For inflammatory cytokine expression analysis, Beas-2B cells were stimulated with three different conditions: 1) 5 μM ECP, 2) 5 μM CMP and 3) co-incubated with 5 μM ECP and 5 μM CMP at 37° C. for 6 and 12 h. […] SYBR Green-based quantitative real-time PCR will be used to quantify the gene of interest, relative expression ratios of genes of interest were normalized to glyceraldehyde-3-phosphate dehydrogenase (GAPDH) transcripts. Changes in cytokine expression were measured by quantitative real-time PCR (qRT-PCR) employing the StepOne™ amplification and detection system (Life Technologies Corporation). […]
ECP, the best known marker protein of asthma, is involved in triggering cytokine expression in bronchial epithelial cells. […] Here variation of gene expression levels of chemokines including CCL11, CCL24 and CCL26 was analyzed.

Row | Molecule | CCL11 release (human CCL11; 5 μM ECP alone, Beas-2B cells) | CCL11 gene expression level increase (CCL11; 6 h) | CCL11 gene expression level increase (CCL11; 12 h) | CCL26 gene expression level increase (CCL26) | CCL11 release (human CCL11; 10 ng/mL IL-4 alone, serum-deprived Beas-2B cells)
1 | ECP: eosinophil cationic protein, recombinant; marker protein of asthma used as stimulus (protein, UniProt P12724 28-160, looked up) Eosinophil cationic protein: RPPQFTRAQWFAIQHISLNPPRCTIAMRAINNYRWRCKNQNTFLRTTFANVVNVCGNQSIRCPHNRTLNNCHRSRFRVPLLHCDLINPGAQNISNCTYADRPGRRFYVVACDNRDPRDSPRYPVVPVHLDTTI | 17.8 pg/mL | 9 fold | 2.8 fold | 2 fold | 
2 | IL-4: a dominant cytokine regulating CCL11, used as stimulus (protein, UniProt P05112 25-153, looked up) Interleukin-4: HKCDITLQEIIKTLNSLTEQKTLCTELTVTDIFAASKNTTEKETFCRAATVLRQFYSHHEKDTRCLGATAQQFHRHKQLIRFLKRLDRNLWGLAGLNSCPVKEANQSTLENFLERLKTIMREKYSKCSS |  |  |  |  | 73.2 pg/mL
